The results in this text go back to paper PMC4427200 (Acta Crystallographica Section D: Biological Crystallography, 2015).

By stoichiometry N is commonly meant a count of units in the complex or per binding partner. By Kd is commonly meant a measure of binding affinity in units of concentration. Low values mean tighter binding, high ones weaker binding. The Km is the concentration of substrate that gives half-maximal velocity.

In data set [1] the target is betaine aldehyde dehydrogenase SACOL2628 from Staphylococcus aureus COL (SaBADH), wild type (Staphylococcus aureus COL). Kind of data set: dynamic light scattering; SaBADH^BME(−) 10-100 uM in 10 mM Tris-HCl pH 8.3, 0.5 mM TCEP, no added salt, 298 K.
The target is the same in data set [2]. Kind of data set: SEC-MALS; SaBADH^BME(+) 2 mg/ml on Superdex 200 10/300 GL in 10 mM Tris-HCl pH 8.3, 500 mM NaCl, 5 mM BME, 295 K.
For data set [3] the target is unchanged. Kind of data set: dynamic light scattering; SaBADH^BME(−) 10-100 uM in 10 mM Tris-HCl pH 8.3, 0.5 mM TCEP, with 0.5-2.5 M KCl, 298 K.
For data set [4] the target is unchanged. The data set can be described thus: dynamic light scattering; SaBADH^BME(−) 10-100 uM in 10 mM Tris-HCl pH 8.3, 0.5 mM TCEP, with 0.5-2.5 M NaCl, 298 K.
Data set [5] shares this target. Kind of data set: crystal structure; X-ray structures of apo and NAD-bound forms, with and without BME; sitting-drop vapor diffusion at 295 K; assemblies analysed with PISA.
Data set [6] has as its target T1, SaBADH (Staphylococcus aureus, UniProt A0A0H2X0S3).
T1 construct: gene betB; pMCSG7 tagged protein (Ni-NTA), E. coli BL21(DE3)/pMAGIC; tetramer/dimer; G234S cloned in p15TV-LIC
T1 sequence (A0A0H2X0S3 1-496): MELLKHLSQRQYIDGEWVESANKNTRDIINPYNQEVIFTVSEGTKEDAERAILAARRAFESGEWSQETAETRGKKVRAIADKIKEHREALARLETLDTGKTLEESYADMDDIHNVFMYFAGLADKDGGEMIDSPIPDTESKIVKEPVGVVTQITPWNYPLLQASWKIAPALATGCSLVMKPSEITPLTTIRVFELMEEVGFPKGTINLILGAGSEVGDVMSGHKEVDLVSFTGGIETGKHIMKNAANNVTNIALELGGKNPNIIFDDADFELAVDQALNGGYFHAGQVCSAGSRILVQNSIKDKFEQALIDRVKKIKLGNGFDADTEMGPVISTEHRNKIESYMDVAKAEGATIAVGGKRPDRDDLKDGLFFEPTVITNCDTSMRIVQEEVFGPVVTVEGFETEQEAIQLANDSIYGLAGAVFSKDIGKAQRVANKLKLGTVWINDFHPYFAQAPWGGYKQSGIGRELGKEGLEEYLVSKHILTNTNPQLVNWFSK
The data set can be described thus: SPR, immobilized SaBADH(BME+). It counts as binding. (In general: Surface plasmon resonance follows binding to a sensor surface in real time, without labels.)

Data set [7] addresses T1, SaBADH. The data set can be described thus: NADH absorbance at […] nm. In kind it is biochemical. The note with it: substrate inhibition; co-substrate NAD+; 100 mM potassium phosphate pH 8.0, 303 K.
A further data set has as its target T2, AroD (Salmonella enterica, UniProt P58687).
T2 construct: source cited as Light et al., 2013; used as SPR control protein
T2 sequence (P58687 1-252): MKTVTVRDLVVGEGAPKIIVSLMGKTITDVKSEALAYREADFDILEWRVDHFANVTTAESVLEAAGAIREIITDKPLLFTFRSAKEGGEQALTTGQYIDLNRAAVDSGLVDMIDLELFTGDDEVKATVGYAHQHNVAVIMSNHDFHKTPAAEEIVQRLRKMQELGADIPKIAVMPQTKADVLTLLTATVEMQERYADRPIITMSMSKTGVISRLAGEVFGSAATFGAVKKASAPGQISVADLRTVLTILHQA
The data set can be described thus: SPR, single binding isotherm fitting. The source says: SPR, single binding isotherm fitting on AroD | each of the proteins selectively responded to its natural ligand, NADH and DQA, respectively

Data set [8] addresses T1, SaBADH. The data set can be described thus: SPR, immobilized SaBADH. It counts as binding. The note with it: 2 mM ADP, pH 5.0-8.0, 298 K, two-day-old surface.
Data set [9] addresses Gly234Ser mutant of SaBADH (G234S-SaBADH) (Staphylococcus aureus COL). The data set can be described thus: crystal structure; X-ray structures of apo and NAD-bound forms, with and without BME; sitting-drop vapor diffusion at 295 K; assemblies analysed with PISA.
Substrate in data set [10]: NC(=O)c1ccc[n+]([C@@H]2O[C@H](COP(=O)(O)OP(=O)(O)OC[C@H]3O[C@@H](n4cnc5c(N)ncnc54)[C@H](O)[C@@H]3O)[C@@H](O)[C@H]2O)c1
The data set can be described thus: purified protein. The note with it: co-substrate betaine aldehyde, 100 mM potassium phosphate pH 8.0, 303 K, 30.0 °C, varied: cofactor.

Substrate in data set [11]: NC(=O)c1ccc[n+]([C@@H]2O[C@H](COP(=O)(O)OP(=O)(O)OC[C@H]3O[C@@H](n4cnc5c(N)ncnc54)[C@H](OP(=O)(O)O)[C@@H]3O)[C@@H](O)[C@H]2O)c1
The data set can be described thus: purified protein. The note with it: co-substrate betaine aldehyde, 100 mM potassium phosphate pH 8.0, 303 K, 30.0 °C, varied: cofactor.

As to “betaine aldehyde dehydrogenase SACOL2628 from Staphylococcus aureus COL (SaBADH), wild type (enzyme)”, the stoichiometry N amounted to 2 in data set [1]; 4 in data set [2]; 2 in data set [3]; 4 in data set [4]; 4 in data set [5].
Take `NC(=O)C1=CN([C@@H]2O[C@H](COP(=O)(O)OP(=O)(O)OC[C@H]3O[C@@H](n4cnc5c(N)ncnc54)[C@H](O)[C@@H]3O)[C@@H](O)[C@H]2O)C=CC1` [NADH]: binding at SaBADH [6] was characterised by a dissociation constant (Kd) of 4.5 µM.
Consider `C[N+](C)(C)CC=O` [betaine aldehyde], for which the Betaine aldehyde on SaBADH [7] was 0.34 ± 0.06 mM.
On to `O=C1C[C@@](O)(C(=O)O)C[C@@H](O)[C@@H]1O` [3-dehydroquinic acid], for which, at AroD, the Kd came out at 244 µM.
With `Nc1ncnc2c1ncn2[C@@H]1O[C@H](COP(=O)(O)OP(=O)(O)O)[C@@H](O)[C@H]1O` [ADP], the “SPR, immobilized SaBADH” value at SaBADH [8] is reported as “An acidic pH favored the ADP–SaBADH interaction”.
As for `NC(=O)c1ccc[n+]([C@@H]2O[C@H](COP(=O)(O)OP(=O)(O)OC[C@H]3O[C@@H](n4cnc5c(N)ncnc54)[C@H](O)[C@@H]3O)[C@@H](O)[C@H]2O)c1` [NAD^+], binding on SaBADH [6] was characterised by a dissociation constant (Kd) of 19.3 µM.
For the molecule “Gly234Ser mutant of SaBADH (G234S-SaBADH) (enzyme)”, the stoichiometry N in data set [9] was determined as 4.

B1: SaBADH (Staphylococcus aureus subsp. aureus COL) (protein)
chain: T1 sequence (A0A0H2X0S3 1-496)
With B1, the figures for the Michaelis-Menten constant (Km) in the data set “purified protein [10]” and in the data set “purified protein [11]” were 430 ± 30 µM and 2260 ± 350 µM, respectively.
